Experimental data published in ChEMBL document CHEMBL2073844, “Pharmacological characterization of the murine and human orthologs of multidrug-resistance protein in transfected human embryonic kidney cells” (Mol Pharmacol, 1997).

Tests used:
[1] = substrate: C[C@]12CC[C@@H]3c4ccc(O)cc4CC[C@H]3[C@@H]1CC[C@@H]2O[C@@H]1O[C@H](C(=O)O)[C@@H](O)[C@H](O)[C@H]1O; test: cells, lysate or membranes named
[2] = substrate: CCCCC/C=C\C\C=C/C=C/C=C/[C@@H](SC[C@@H](NC(=O)CC[C@H](N)C(=O)O)C(=O)NCC(=O)O)[C@@H](O)CCCC(=O)O; test: cells, lysate or membranes named

B1: Multidrug resistance-associated protein 1 (Mus musculus) (protein)
chain: MALRSFCSADGSDPLWDWNVTWHTSNPDFTKCFQNTVLTWVPCFYLWSCFPLYFFYLSRHDRGYIQMTHLNKTKTALGFFLWIICWADLFYSFWERSQGVLRAPVLLVSPTLLGITMLLATFLIQLERRKGVQSSGIMLTFWLVALLCALAILRSKIISALKKDAHVDVFRDSTFYLYFTLVLVQLVLSCFSDCSPLFSETVHDRNPCPESSASFLSRITFWWITGMMVHGYRQPLESSDLWSLNKEDTSEEVVPVLVNNWKKECDKSRKQPVRIVYAPPKDPSKPKGSSQLDVNEEVEALIVKSPHKDREPSLFKVLYKTFGPYFLMSFLYKALHDLMMFAGPKILELIINFVNDREAPDWQGYFYTALLFVSACLQTLALHQYFHICFVSGMRIKTAVVGAVYRKALLITNAARKSSTVGEIVNLMSVDAQRFMDLATYINMIWSAPLQVILALYFLWLSLGPSVLAGVAVMILMVPLNAVMAMKTKTYQVAHMKSKDNRIKLMNEILNGIKVLKLYAWELAFQDKVMSIRQEELKVLKKSAYLAAVGTFTWVCTPFLVALSTFAVFVTVDERNILDAKKAFVSLALFNILRFPLNILPMVISSIVQASVSLKRLRIFLSHEELEPDSIERRSIKSGEGNSITVKNATFTWARGEPPTLNGITFSIPEGALVAVVGQVGCGKSSLLSALLAEMDKVEGHVTLKGSVAYVPQQAWIQNDSLRENILFGHPLQENYYKAVMEACALLPDLEILPSGDRTEIGEKGVNLSGGQKQRVSLARAVYSNSDIYLFDDPLSAVDAHVGKHIFEKVVGPMGLLKNKTRILVTHGISYLPQVDVIIVMSGGKISEMGSYQELLDRDGAFAEFLRTYANAEQDLASEDDSVSGSGKESKPVENGMLVTDTVGKHLQRHLSNSSSHSGDTSQQHSSIAELQKAGAKEETWKLMEADKAQTGQVQLSVYWNYMKAIGLFITFLSIFLFLCNHVSALASNYWLSLWTDDPPVVNGTQANRNFRLSVYGALGILQGAAIFGYSMAVSIGGIFASRRLHLDLLYNVLRSPMSFFERTPSGNLVNRFSKELDTVDSMIPQVIKMFMGSLFSVIGAVIIILLATPIAAVIIPPLGLVYFFVQRFYVASSRQLKRLESVSRSPVYSHFNETLLGVSVIRAFEEQERFIHQSDLKVDENQKAYYPSIVANRWLAVRLECVGNCIVLFAALFAVISRHSLSAGLVGLSVSYSLQITAYLNWLVRMSSEMETNIVAVERLKEYSETEKEAPWQIQETAPPSTWPHSGRVEFRDYCLRYREDLDLVLKHINVTIEGGEKVGIVGRTGAGKSSLTLGLFRINESAEGEIIIDGVNIAKIGLHNLRFKITIIPQDPVLFSGSLRMNLDPFSQYSDEEVWMALELAHLKGFVSALPDKLNHECAEGGENLSVGQRQLVCLARALLRKTKILVLDEATAAVDLETDNLIQSTIRTQFEDCTVLTIAHRLNTIMDYTRVIVLDKGEVRECGAPSELLQQRGIFYSMAKDAGLV
Km [1]: 2.9 µM
Km [2]: 0.06 µM
